B1: Hammerhead Ribozyme (parent)
chain: ACCGGAUGUGCUUUCCGGUCUGAUGAGUCCGUGAGGACGAAACAG

The data set covers variants of B1. The data set can be described thus: self-cleavage, relative activity (ratio to wild type); higher = more cleavage; co-transcriptional.
On to U9C A37U, for which the self-cleavage turned out to be 0.666.
As for U9C A37G, the figure is 1.61; as for U9C A37C, 1.03; as for U9C G33U, 1.24.
To U9C G33C belongs 1.18; to U9C G33A, 0.952; to U9G C11A, 1.47.
To U9G C11U belongs 0.342.
Turning to U9G C11G, the self-cleavage worked out at 1.17.
As to U9G U14G, the self-cleavage was determined as 0.991.
As for U9G U14C, the figure is 0.41.
To U9G U14A belongs 0.916.
Take U9A A34G: the self-cleavage is 0.751.
As for U9A A34C, the figure is 1.2.
As for U9A A34U, the figure is 0.941.
As for U9C G22A, the figure is 0.34.
Take U9C G22C: the self-cleavage was 0.266.
To U9C G22U belongs 0.307.
Consider U9A G36C, for which the self-cleavage was found to be 0.573.
To U9A G36A belongs 0.621; to U9A G36U, 0.505.
To U9C G25A belongs 0.312.
For U9C G25C, the self-cleavage is 0.294.
To U9C G25U belongs 0.309.
As for U9G A34C, the figure is 0.579.
To U9G A34U belongs 0.631; to U9G A34G, 1.04; to U9G G18C, 0.364.
As for U9G G18A, the self-cleavage stood at 0.393.
As for U9G G18U, the figure is 0.4.
As for U9A C16A, the figure is 1.15; as for U9A C16G, 0.742.
As for U9A C16U, the figure is 1.11.
Consider U9G C38A, for which the self-cleavage came to 0.671.
As for U9G C38U, the figure is 0.876.
As for U9G C38G, the figure is 0.486.
As for U9C C16U, the figure is 1.41; as for U9C C16G, 0.626.
Regarding U9C C16A, the self-cleavage was 1.04.
To U9G C30U belongs 1.26.
To U9G C30A belongs 0.677.
As for U9G C30G, the self-cleavage worked out at 0.898.
As for U9C C43G, the figure is 0.274.
As to U9C C43A, the self-cleavage turned out to be 0.314.
As for U9C C43U, the figure is 0.38; as for U9G C16U, 0.848; as for U9G C16G, 0.456.
To U9G C16A belongs 0.835; to U9A G31U, 1.3; to U9A G31C, 1.18.
To U9A G31A belongs 0.825.
On to U9A C20A, for which the self-cleavage came to 0.438.
For U9A C20G, the self-cleavage is 0.422.
To U9A C20U belongs 0.557; to U9A U14A, 1.07; to U9A U14G, 1.
As for U9A U14C, the figure is 0.73.
To U9A A23G belongs 0.324; to U9A A23U, 0.337; to U9A A23C, 0.46.
For the variant U9C C38U, the self-cleavage is 1.1.
As for U9C C38G, the figure is 0.805.
To U9C C38A belongs 0.618.
For the variant U9A C30A, the self-cleavage was 1.
To U9A C30U belongs 1.07; to U9A C30G, 0.774; to U9C A44U, 0.661.
To U9C A44C belongs 0.493; to U9C A44G, 1.32; to U9C G35C, 0.498.
U9C G35U: the self-cleavage stood at 0.713.
With U9C G35A, the self-cleavage turned out to be 0.814.
As for G8U U13A, the figure is 1.1; as for G8U U13G, 1.05.
As for G8U U13C, the figure is 1.34.
As for U9C U28G, the figure is 0.808.
On to U9C U28C, for which the self-cleavage was 1.08.
As for U9C U28A, the figure is 0.717.
As for U9A U21A, the figure is 0.528; as for U9A U21C, 0.649.
To U9A U21G belongs 0.58.
Turning to U9A A26G, the self-cleavage came out at 0.368.
Turning to U9A A26C, the self-cleavage was found to be 0.532.
To U9A A26U belongs 0.865.
As for U9G G39C, the figure is 0.33.
Regarding U9G G39U, the self-cleavage amounted to 0.319.
As for U9G G39A, the figure is 0.307.
As for U9G G10U, the figure is 1.05; as for U9G G10A, 0.891.
To U9G G10C belongs 0.987; to U9C U32A, 0.837.
For the variant U9C U32C, the self-cleavage came to 1.49.
As to U9C U32G, the self-cleavage was determined as 0.9.
Regarding U9G G22C, the self-cleavage was 0.399.
To U9G G22U belongs 0.358.
As for U9G G22A, the figure is 0.321; as for U9C G18A, 0.627.
As for U9C G18U, the figure is 0.738.
On to U9C G18C, for which the self-cleavage is 0.47.
As for U9C A40U, the figure is 0.406; as for U9C A40G, 0.374; as for U9C A40C, 0.633.
As for U9A G27A, the figure is 0.841; as for U9A G27U, 0.585.
To U9A G27C belongs 0.609; to U9C A26G, 0.379; to U9C A26U, 0.671.
For U9C A26C, the self-cleavage was determined as 0.554.
To G8U U32C belongs 0.877; to G8U U32G, 0.859; to G8U U32A, 0.996.
As for U9G C15U, the figure is 0.842; as for U9G C15G, 0.729; as for U9G C15A, 0.758.
Regarding U9C C11A, the self-cleavage worked out at 1.6.
To U9C C11U belongs 0.889; to U9C C11G, 0.944.
As for U9C C20G, the figure is 0.437.
To U9C C20A belongs 0.363; to U9C C20U, 0.504; to U9C U14A, 0.872.
Turning to U9C U14C, the self-cleavage worked out at 0.518.
To U9C U14G belongs 1.29.
To U9A C15G belongs 0.758; to U9A C15A, 0.699; to U9A C15U, 0.848.
To U9C C29U belongs 0.831; to U9C C29G, 0.601.
For the variant U9C C29A, the self-cleavage was 0.77.
As for U9A G17C, the figure is 0.449; as for U9A G17A, 0.539.
As for U9A G17U, the figure is 0.565.
In the case of U9A G10A, the self-cleavage is 1.38.
As for U9A G10C, the figure is 1; as for U9A G10U, 1.07.
To U9G G45A belongs 0.426; to U9G G45U, 0.454.
As for U9G G45C, the figure is 0.462.
Consider U9G U12G, for which the self-cleavage was 0.784.
To U9G U12A belongs 1.04.
For the variant U9G U12C, the self-cleavage was 1.57.
U9A G45A: the self-cleavage was 0.707.
For the variant U9A G45C, the self-cleavage turned out to be 0.609.
As for U9A G45U, the figure is 0.638; as for U9A U13G, 1.1; as for U9A U13A, 1.62.
As for U9A U13C, the figure is 1.37.
As to U9A U32A, the self-cleavage is 0.964.
To U9A U32C belongs 0.953.
To U9A U32G belongs 0.539; to U9A G39A, 0.307.
To U9A G39C belongs 0.288; to U9A G39U, 0.422.
For the variant U9C G27U, the self-cleavage was found to be 0.505.
As for U9C G27C, the figure is 0.774.
To U9C G27A belongs 0.973; to U9A G35U, 0.435.
U9A G35C: the self-cleavage was 1.05.
As for U9A G35A, the figure is 0.751; as for U9C G31U, 0.948.
To U9C G31A belongs 1.39.
As for U9C G31C, the figure is 1; as for U9G G36U, 0.569; as for U9G G36C, 0.593.
U9G G36A: the self-cleavage turned out to be 0.57.
On to U9G A42C, for which the self-cleavage came out at 0.303.
Take U9G A42U: the self-cleavage worked out at 0.28.

These data come from the RNAGym collection of RNA variant scans (doi:10.7554/elife.80360).
